Results taken from paper PMC9763398.

Columns and labels:
[1] = target: TGF-β receptor 1 (UniProt P36897); test: co-immunoprecipitation, western blot; conditions: reference: wild type Hsp90ab1; sites S225,S254
[2] = target: DYRK1A (UniProt Q13627); test: immunofluorescence co-localisation, confocal overlap index

Substance | binding against the reference [1] | other: average overlap index ([2]; reference: wild type Hsp90ab1, sites S225,S254) | other: average overlap index ([2]; reference: wild type β-catenin, sites T551,S552)
Hsp90ab1 (from UniProt P08238) S225A S254A Hsp90ab1 | weaker | weaker; reference 0.5378 | –
β-catenin (from UniProt P35222) T551A S552A β-catenin | – | – | weaker; reference 0.8419
